Experimental findings from patent US6849598B1, “Therapeutic compositions comprising bactericidal/permeability-increasing (BPI) protein products” (XOMA, priority 1995, dated 2005) are described below.

What all share (experiment): Bactericidal activity in water or broth, CFU after 30 minutes and 3 hours (Example 3)
Format in all cases: cell-based

For assay [1], the system named is E. faecium (Microscan® ID no. 15773). The method, then:
(§1) The bactericidal activity of therapeutic compositions comprising BPI protein product and heat-treated PLURONIC P103 or heat-treated PLURONIC P104, was evaluated against the S. aureus and A. baumannii clinical isolates of Example 1 and the additional organisms S. pneunoniae (Microscan® ID no. 145) and E. faecium (Microscan® ID no. 15773). Therapeutic compositions comprising 500 μg/mL rBPI21 in a 0.075% (w/v) concentration of either heat-treated PLURONIC P103 or heat-treated PLURONIC P104 were formulated by diluting a 2 mg/mL solution of “non-formulated” rBPI21 or “formulated” rBPI21, with the appropriate amounts of 0.1% heat-treated PLURONIC P103 or heat-treated PLURONIC P104 solutions. Compositions comprising 500 μg/mL non-formulated rBPI21 in water alone (without any poloxamers) and poloxamer control solutions containing only 0.1% heat-treated P103 or heat-treated P104 (and no rBPI21) were also prepared A “formulated” rBPI23 therapeutic composition containing 1 mg/mL rBPI23, 0.1% PLURONIC F68 and 0.002% TWEEN 80 was also tested for comparison.
(§2) Sterile stock solutions of heat-treated PLURONIC P103 or heat-treated PLURONIC P104 were prepared using the following procedure: (1) making a 0.1% (w/v) solution of the poloxamer in deionized water, (2) heating the solution to a boil, (3) allowing it to cool to room temperature, (4) stirring until the PLURONIC P103 was completely solubilized, and (5) filtering the solution through a 0.22 μm Nalgene filter for sterilization.
(§3) The S. aureus, E. faecium and A. baumannii bacteria were grown on TSA plates (Remel, Catalog #01-920, Lenexa, Kans.), and the S. pneumoniae were grown on 5% sheep blood agar plates (Remel, Catalog# 01-200, Lenexa, Kans.) for 24 hours. A bacterial stock emulsion was prepared by emulsifying bacterial colonies in sterile deionized water to approximately 2.2 to 3.8×10^8 CFU/mL as measured by a Microscan® Turbidity Meter, and diluting further by 1:10 in water. Assays for rBPI21 therapeutic compositions were conducted in 96-well flat-bottom microtiter plates (Corning, catalog# 25860-96) by adding to each well: 185 μL of TSB (Remel, catalog #08-942, Lenexa, Kans.) or sterile water for injection (Kendall McGaw); 8 μL of the bacterial emulsion; 6.3 μL of the indicated 500 μg/mL rBPI21/poloxamer therapeutic composition (or poloxamer control solution or water alone). The final concentrations of bacteria in each well were about 4 to 7×10^5 CFU/mL. Assays for the rBPI23 therapeutic composition were conducted in the same way, except 178 μL of broth or water and 13 μL of the […] rBPI23 composition were added. The well contents were mixed and the plates were incubated at 37° C. The CFUs in each well were counted at 10^−2 and 10^−4 dilutions after 30 minutes and 3 hours of incubation. Results at 30 minutes and 3 hours, respectively, are shown below in Tables 8 and 9.

Assay [2] deals with A. baumannii (formerly A. anitratus). The method, then: as §1, §2, §3
The next assay relates to S. aureus. The method, then: as §1, §2, §3
Assay [3] has as its system S. pneumoniae (Microscan® ID no. 145). The method, then: as §1, §2, §3
Setting [4] is: broth, Incubation for 30 minutes, Control TNTC / TNTC.
[5] abbreviates: broth, Incubation for 3 hours, Control TNTC.
Setting [6] is: water, Incubation for 30 minutes, Control TNTC / TNTC.
Setting [7] is: water, Incubation for 3 hours, Control TNTC.

B1: rBPI21: expression product of DNA encoding amino acid 1 to approximately 193 or 199 of BPI holoprotein, cysteine 132 substituted with alanine (protein, UniProt P17213 32-224, looked up, variant C132A)
chain: VNPGVVVRISQKGLDYASQQGTAALQKELKRIKIPDYSDSFKIKHLGKGHYSFYSMDIREFQLPSSQISMVPNVGLKFSISNANIKISGKWKAQKRFLKMSGNFDLSIEGMSISADLKLGSNPTSGKPTITASSCSSHINSVHVHISKSKVGWLIQLFHKKIESALRNKMNSQVCEKVTNSVSSELQPYFQTL
B1: the CFUs is recorded as 89 10000 CFUs in assay [1] (broth, Incubation for 30 minutes, Control 68 / 38); “TNTC” in assay [1] (setting [4]); “TNTC” in assay [1] (setting [5]); 1 10000 CFUs in assay [1] (water, Incubation for 30 minutes, Control 37 / 35); 50 100 CFUs in assay [1] (setting [6]); 1 100 CFUs in assay [1] (setting [7]). The CFUs in assay [2] (A. anitratus, broth, Incubation for 30 minutes, Control 44 / 41) was 24 10000 CFUs; in assay [2] (A. anitratus, broth, Incubation for 30 minutes, Control TNTC / TNTC) it was “TNTC”; in assay [2] (A. anitratus, water, Incubation for 30 minutes, Control 16 / 17), 0 10000 CFUs; in assay [2] (A. anitratus, water, Incubation for 30 minutes, Control TNTC / TNTC), 73 100 CFUs; in assay [2] (setting [5]) it was 58 100 CFUs; in assay [2] (setting [7]), 0 100 CFUs. In addition, the CFUs with S. aureus (broth, Incubation for 30 minutes, Control 65 / 59) was 57 10000 CFUs; in the assay on S. aureus (setting [4]), “TNTC”; in the assay on S. aureus (setting [5]), “TNTC”; with S. aureus (water, Incubation for 30 minutes, Control 54 / 63), 2 10000 CFUs; in the assay with S. aureus (setting [6]), 315 100 CFUs; in the assay with S. aureus (setting [7]) it was 12 100 CFUs. The CFUs is recorded as 4 10000 CFUs in assay [3] (broth, Incubation for 30 minutes, Control 4 / 1); 290 100 CFUs in assay [3] (broth, Incubation for 30 minutes, Control 389 / 350); 447 100 CFUs in assay [3] (broth, Incubation for 3 hours, Control 337); 0 10000 CFUs in assay [3] (water, Incubation for 30 minutes, Control 1 / 0); 61 100 CFUs in assay [3] (water, Incubation for 30 minutes, Control 75 / 47); 0 100 CFUs in assay [3] (water, Incubation for 3 hours, Control 0).
